Results as given in publication PMC4258231.

Biological target: typhoid toxin B subunit PltB (Salmonella Typhi) (UniProt Q8Z6A3)
Experiment: crystal structure

Question: “typhoid toxin B subunit PltB (from UniProt Q8Z6A3 1-137) (natural protein)” was tested. Which stoichiometry N did it give?
Answer: 5
